The assay addresses 1-acyl-sn-glycerol-3-phosphate acyltransferase alpha (AGPAT1), endogenous in human cells (human (endogenous in Huh7, HAP1, ERMS)) (UniProt Q99943). Kind of assay: immunostaining of cells or tissue.
Sequence of UniProt Q99943 (Q99943 27-283): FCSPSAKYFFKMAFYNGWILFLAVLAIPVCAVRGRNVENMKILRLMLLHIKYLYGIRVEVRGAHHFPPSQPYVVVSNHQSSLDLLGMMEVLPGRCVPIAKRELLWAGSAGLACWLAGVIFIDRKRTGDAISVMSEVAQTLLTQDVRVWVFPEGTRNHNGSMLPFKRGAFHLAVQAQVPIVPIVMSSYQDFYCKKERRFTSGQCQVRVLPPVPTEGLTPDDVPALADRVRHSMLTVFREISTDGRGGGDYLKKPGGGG

In the case of “Chikungunya virus (CHIKV) particles, sucrose gradient-purified, strain IND-06-Guj (complex)”, the reduction of CHIKV binding (MIFD) in AGPAT1 KO against WT HAP1 cells turned out to be 85%.

The values are drawn from publication PMC13011415.
